The results in this text go back to patent publication US20160046728.

This data set deals with T1, Ir-CPI (Ixodes ricinus Contact Phase Inhibitor), recombinant.
T1 chain: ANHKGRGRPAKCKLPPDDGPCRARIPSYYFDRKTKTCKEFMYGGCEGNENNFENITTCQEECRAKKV

B1: factor XIIa (protein)
chain: IPPWEAPKEHKYKAEEHTVVLTVTGEPCHFPFQYHRQLYHKCTHKGRPGPQPWCATTPNFDQDQRWGYCLEPKKVKDHCSKHSPCQKGGTCVNMPSGPHCLCPQHLTGNHCQKEKCFEPQLLRFFHKNEIWYRTEQAAVARCQCKGPDAHCQRLASQACRTNPCLHGGRCLEVEGHRLCHCPVGYTGAFCDVDTKASCYDGRGLSYRGLARTTLSGAPCQPWASEATYRNVTAEQARNWGLGGHAFCRNPDNDIRPWCFVLNRDRLSWEYCDLAQCQTPTQAAPPTPVSPRLHVPLMPAQPAPPKPQPTTRTPPQSQTPGALPAKREQPPSLTRNGPLSCGQRLRKSLSSMTRVVGGLVALRGAHPYIAALYWGHSFCAGSLIAPCWVLTAAHCLQDRPAPEDLTVVLGQERRNHSCEPCQTLAVRSYRLHEAFSPVSYQHDLALLRLQEDADGSCALLSPYVQPVCLPSGAARPSETTLCQVAGWGHQFEGAEEYASFLQEAQVPFLSLERCSAPDVHGSSILPGMLCAGFLEGGTDACQGDSGGPLVCEDQAAERRLTLQGIISWGSGCGDRNKPGVYTDVAYYLAWIREHTVS
Consider B1, for which the “activation of factor XI into factor XIa by factor XIIa (reconstituted system, purified factors, chromogenic substrate)” value is listed as “Ir-CPI inhibits ... the activation of factor XI into factor XIa by factor XIIa”; the “activation of prekallikrein into kallikrein by factor XIIa (reconstituted system, purified factors, chromogenic substrate)” value is recorded as “Ir-CPI inhibits the activation of prekallikrein into kallikrein by factor XIIa”; the “amidolytic activity on chromogenic substrate (protease:Ir-CPI 1:5)” value (“amidolytic activity” below) is “The results obtained did not show any effect of Ir-CPI protein on the amidolytic activity of these factors”.

B2: factor Xa (protein)
chain 1: ANSFLEEMKKGHLERECMEETCSYEEAREVFEDSDKTNEFWNKYKDGDQCETSPCQNQGKCKDGLGEYTCTCLEGFEGKNCELFTRKLCSLDNGDCDQFCHEEQNSVVCSCARGYTLADNGKACIPTGPYPCGKQTLER
chain 2: IVGGQECKDGECPWQALLINEENEGFCGGTILSEFYILTAAHCLYQAKRFKVRVGDRNTEQEEGGEAVHEVEVVIKHNRFTKETYDFDIAVLRLKTPITFRMNVAPACLPERDWAESTLMTQKTGIVSGFGRTHEKGRQSTRLKMLEVPYVDRNSCKLSSSFIITQNMFCAGYDTKQEDACQGDSGGPHVTRFKDTYFVTGIVSWGEGCARKGKYGIYTKVTAFLKWIDRSMKTRGLPKAKSHAPEVITSSPLK
In the case of B2, the “amidolytic activity” value is “The results obtained did not show any effect of Ir-CPI protein on the amidolytic activity of these factors”.

B3: plasmin (protein)
chain: KVYLSECKTGNGKNYRGTMSKTKNGITCQKWSSTSPHRPRFSPATHPSEGLEENYCRNPDNDPQGPWCYTTDPEKRYDYCDILECEEECMHCSGENYDGKISKTMSGLECQAWDSQSPHAHGYIPSKFPNKNLKKNYCRNPDRELRPWCFTTDPNKRWELCDIPRCTTPPPSSGPTYQCLKGTGENYRGNVAVTVSGHTCQHWSAQTPHTHNRTPENFPCKNLDENYCRNPDGKRAPWCHTTNSQVRWEYCKIPSCDSSPVSTEQLAPTAPPELTPVVQDCYHGDGQSYRGTSSTTTTGKKCQSWSSMTPHRHQKTPENYPNAGLTMNYCRNPDADKGPWCFTTDPSVRWEYCNLKKCSGTEASVVAPPPVVLLPDVETPSEEDCMFGNGKGYRGKRATTVTGTPCQDWAAQEPHRHSIFTPETNPRAGLEKNYCRNPDGDVGGPWCYTTNPRKLYDYCDVPQCAAPSFDCGKPQVEPKKCPGRVVGGCVAHPHSWPWQVSLRTRFGMHFCGGTLISPEWVLTAAHCLEKSPRPSSYKVILGAHQEVNLEPHVQEIEVSRLFLEPTRKDIALLKLSSPAVITDKVIPACLPSPNYVVADRTECFITGWGETQGTFGAGLLKEAQLPVIENKVCNRYEFLNGRVQSTELCAGHLAGGTDSCQGDSGGPLVCFEKDKYILQGVTSWGLGCARPNKPGVYVRVSRFVTWIEGVMRNN
Consider B3, for which the “amidolytic activity” value is listed as “The results obtained did not show any effect of Ir-CPI protein on the amidolytic activity of these factors”.

B4: factor VIIa (protein)
chain: ANAFLEELRPGSLERECKEEQCSFEEAREIFKDAERTKLFWISYSDGDQCASSPCQNGGSCKDQLQSYICFCLPAFEGRNCETHKDDQLICVNENGGCEQYCSDHTGTKRSCRCHEGYSLLADGVSCTPTVEYPCGKIPILEKRNASKPQGRIVGGKVCPKGECPWQVLLLVNGAQLCGGTLINTIWVVSAAHCFDKIKNWRNLIAVLGEHDLSEHDGDEQSRRVAQVIIPSTYVPGTTNHDIALLRLHQPVVLTDHVVPLCLPERTFSERTLAFVRFSLVSGWGQLLDRGATALELMVLNVPRLMTQDCLQQSRKVGDSPNITEYMFCAGYSDGSKDSCKGDSGGPHATHYRGTWYLTGIVSWGQGCATVGHFGVYTRVSQYIEWLQKLMRSEPRPGVLLRAPFP
Consider B4, for which the “amidolytic activity” value is reported as “The results obtained did not show any effect of Ir-CPI protein on the amidolytic activity of these factors”.

B5: t-PA (protein)
chain: SYQVICRDEKTQMIYQQHQSWLRPVLRSNRVEYCWCNSGRAQCHSVPVKSCSEPRCFNGGTCQQALYFSDFVCQCPEGFAGKCCEIDTRATCYEDQGISYRGTWSTAESGAECTNWNSSALAQKPYSGRRPDAIRLGLGNHNYCRNPDRDSKPWCYVFKAGKYSSEFCSTPACSEGNSDCYFGNGSAYRGTHSLTESGASCLPWNSMILIGKVYTAQNPSAQALGLGKHNYCRNPDGDAKPWCHVLKNRRLTWEYCDVPSCSTCGLRQYSQPQFRIKGGLFADIASHPWQAAIFAKHRRSPGERFLCGGILISSCWILSAAHCFQERFPPHHLTVILGRTYRVVPGEEEQKFEVEKYIVHKEFDDDTYDNDIALLQLKSDSSRCAQESSVVRTVCLPPADLQLPDWTECELSGYGKHEALSPFYSERLKEAHVRLYPSSRCTSQHLLNRTVTDNMLCAGDTRSGGPQANLHDACQGDSGGPLVCLNDGRMTLVGIISWGLGCGQKDVPGVYTKVTNYLDWIRDNMRP
As to B5, the “amidolytic activity” value was “The results obtained did not show any effect of Ir-CPI protein on the amidolytic activity of these factors”.
